# Laboratory results from patent US20100105876A1, “Method for the oligomerisation of peptides” (priority 1996, published 2010).
# Bridge positions count the residues as written; N and C are the ends. Ends that are not written are not given here.
# Assays:
# [1] = biological target: Pentabody Pab-S (peptide S - camel Ig hinge - modified COMP pentamerization domain - 6xHis, homopentamer) (UniProt P35444); experiment: soluble BCL1 IgM competing the binding of Pab-S to BCL1 cells
# BCL1 IgM idiotype = experiment: RIA competition on plastic: inhibition of 125I labeled B1 IgG binding to coated BCL1 IgM; design: species or system mouse
# Method: RIA competition on plastic. Polyvinil 96-well plates are coated with BCL1 IgM at 3 μg/ml in PBS for 16 h at 4° C. and blocked with 2% MPBS for 1 h at 37° C. Different amounts of peptides are incubated with 10 nCi of ^125I labeled B1 IgG for 1 h at 37° C. The wells are washed with PBS containing 0.1% of Tween-20 and the amounts of radioactivity retained is measured with an automated multichannel Cobra II γ-counter.
# Synthetic peptides corresponding to the selected sequences are prepared as outlined in Table 1. Cysteins containing peptide S is completely oxidized on air loosing two hydrogen atoms, as shown by Mass Spectroscopy, which is consistent with the cyclization of the peptide. All synthetic peptides are tested for binding inhibition of ^125I labeled B1 IgG to BCL1 IgM coated on plastic. The D and the S peptides inhibit binding with an IC50 of about 60 μM and 200 μM, respectively. No inhibition is seen with peptide F up to 2 mM, which is used, thereafter, as a negative control.
# However, since spatial arrangement of target molecule on the surface may influence multivalent binding, the equilibrium binding parameters of Pab-S are determined directly on live BCL1 cells, which represent a more relevant biological surface. Purified Pab-S is labeled with ^125I and is shown to bind to BCL1 idiotype on the cell surface. […]
# [2] = biological target: BCL1 soluble IgM (idiotype-bearing IgM purified from the serum of a mouse carrying the BCL1 B-cell lymphoma) (mouse); experiment: RIA competition: peptide against 125I B1 IgG on BCL1 IgM coated on plastic
# Sequence of UniProt P35444 (P35444 other isoform, or with tags, fused parts or gaps): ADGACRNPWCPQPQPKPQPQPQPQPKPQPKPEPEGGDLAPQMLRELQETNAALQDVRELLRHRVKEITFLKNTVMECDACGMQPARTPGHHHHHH
molecule,measurement,setting,value
BCL1 soluble IgM (idiotype-bearing IgM purified from the serum of a mouse carrying the BCL1 B-cell lymphoma) (antibody),concentration for 80% displacement,[1],100 nM
SVWRWLPYDKYE,IC50,"BCL1 IgM idiotype; synthetic peptides, BCL1 IgM coated on plastic",~60 µM
"peptide F: Synthetic peptide, first ten amino acids of the sequence selected from the Fisch library (SEQ ID 3); negative control (TAAGLCEFDQ; Synthetic peptide ligand specific for mouse BCL1 idiotype selected from peptide libraries dispalyed on filamentous bacteriophage displaying random hexapeptides or decapeptides)",inhibition of 125I labeled B1 IgG binding to BCL1 IgM coated on plastic,BCL1 IgM idiotype; up to 2 mM peptide,No inhibition
SVWRWLPYDKYE [synthetic peptide D (selected from the Doorbar library)],IC50,[2],60 µM
"ADGACRNPWC (disulfide 5-10 (inferred)) [synthetic peptide S (selected from the Smith library, oxidized/cyclized)]",IC50,[2],200 µM
